52 sequences from the supplement of paper PMC10567573 can be followed below.

This series in a line: protein stability index of a GFP-peptide fusion (GPS, HEK-293T) (PSI 1-6); higher = more stable.
[1] abbreviates: treatment: DMSO, c terminus: a fixed tail appended.
The mark [2] stands for this setting: treatment: MLN4924 1 uM, 8 h, c terminus: a fixed tail appended.

± gives the standard deviation.
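Also: 24-mer peptide tiles fused after GFP, lentivirally expressed, FACS-sorted into six equal bins by GFP/DsRed ratio, decoded by Illumina sequencing, PSI is the read-weighted mean bin number.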

In the case of VRKHPAVKEKGSTLDLSDLEAEKL [SCD], the protein stability index by setting is: under setting [1], 5.12 ± 0.3; under setting [2], 4.82 ± 0.14.

For ALEEADKMFLRTREPALDGGFQMH [EID1], the protein stability index by setting is: under setting [1], 3.75 ± 0.066; under setting [2], 3.64 ± 0.42.

Turning to NEDPLVLLAWRCTKLSLLAIHGYT [FBXO33], the protein stability index worked out at 3.05 ± 0.33 under setting [1] and 2.91 ± 0.65 under setting [2].

On to LDVERWLKPAMTQAQDEVEQERRL [FCHSD1], for which the protein stability index turned out to be 4.98 ± 0.16 under setting [1] and 5.11 ± 0.19 under setting [2].

As for IIELLASDAGSPSLHKHLTIRLNI [PCDHGC5], the protein stability index by setting is: under setting [1], 3.12 ± 0.48; under setting [2], 3.15 ± 0.6.

In the case of YFCYKAILEFAEKEGMVSSGQNLL [PTPN9], the protein stability index runs as follows: under setting [1], 2.2 ± 0.31; under setting [2], 2.38 ± 0.46.

The sequence EFVTLKAIALANSDSMHIEDVEAV [ESRRG] registered a protein stability index under setting [1] of 3.39 ± 0.38 and a protein stability index under setting [2] of 3.31 ± 0.29.

Regarding SSSSSSSWLTRRAIRPENRAPGAG [EMD], the protein stability index is, setting by setting: under setting [1], 4.33 ± 0.25; under setting [2], 4.16 ± 0.25.

Take KVPESLVRSLRGEEPVPRERDRDP [LURAP1L]: the protein stability index reads like this: under setting [1], 5.28 ± 0.13; under setting [2], 5.25 ± 0.33.

In the case of QLTKASLKPRGCSKPPWRPPGGKL [SPACA9], the protein stability index reads like this: under setting [1], 2.83 ± 0.29; under setting [2], 2.92 ± 0.079.

Turning to VVNTDHGSPEQLQIPVTDSGRHIL [SDE2], the protein stability index is, setting by setting: under setting [1], 4.18 ± 0.15; under setting [2], 4.29 ± 0.45.

For the sequence ETALYRKMLGNPSRLPAKCPGKGA [FKBP8], the protein stability index is, setting by setting: under setting [1], 3.61 ± 0.31; under setting [2], 3.62 ± 0.3.

For the sequence PPVLSFRLVHTTAIEHFQPNADLL [FCHO1], the protein stability index is, setting by setting: under setting [1], 2.54 ± 0.15; under setting [2], 2.17 ± 0.25.

Take LASYLEKVRQLERDNAELENLIRE [KRT33B]: the protein stability index by setting is: under setting [1], 3.31 ± 0.5; under setting [2], 3.34 ± 0.36.

As for EDDPSVLYVSLHRYDHGTFFPMGD [HDAC6], the protein stability index is 2.29 ± 0.31 under setting [1] and 2.37 ± 0.3 under setting [2].

Regarding TCVYIAEIAPQHRRGLLVSLNELM [SLC2A12], the protein stability index is, setting by setting: under setting [1], 2.73 ± 0.6; under setting [2], 2.46 ± 0.56.

With LSTHNWTYWQCGQYLGVGPGAHGR [RSAD1], the protein stability index came out at 2.31 ± 0.21 under setting [1] and 1.99 ± 0.27 under setting [2].

For the sequence GARLVAACSAWLCPGLRLPGSLAG [AUH], the protein stability index reads like this: under setting [1], 2.55 ± 1.2; under setting [2], 3.26 ± 0.84.

On to AWPFYKPVDAEALELHDYHDIIKH [BRD3], for which the protein stability index runs as follows: under setting [1], 3.04 ± 0.17; under setting [2], 3.24 ± 0.35.

On to QPGLLHLQSCGDLHTFTPAGRPRA [FAM189A2], for which the protein stability index by setting is: under setting [1], 5.66 ± 0.44; under setting [2], 5.53 ± 0.18.

With TVECYNPRTNEWTYVAKMSEPHYG [KLHL13], the protein stability index runs as follows: under setting [1], 2.36 ± 0.1; under setting [2], 2.52 ± 0.72.

As to KKLRLVFKSLDKKNDGRIDAQEIM [SLC25A25], the protein stability index came to 2.57 ± 0.23 under setting [1] and 2.87 ± 0.31 under setting [2].

Regarding FLKKSQLTEHKRIHTGKKPHVCSL [ZNF649], the protein stability index came out at 2.76 ± 0.36 under setting [1] and 2.75 ± 0.36 under setting [2].

For TAHMLGVRELRIAFREFDRDRDGR [CABP4], the protein stability index stood at 3.68 ± 0.34 under setting [1] and 3.7 ± 0.076 under setting [2].

For SSRDKLTEMAASSQGNFEGNFESL [FUNDC2], the protein stability index was found to be 4.88 ± 0.28 under setting [1] and 5.03 ± 0.42 under setting [2].

Take RELKAKLSGVEEELQRTKQEVLSL [SASS6]: the protein stability index amounted to 4.47 ± 0.41 under setting [1] and 4.46 ± 0.22 under setting [2].

On to QPQDRNQALGTHRPVNKLAELQCE [RASAL3], for which the protein stability index came out at 4.77 ± 0.37 under setting [1] and 4.88 ± 0.25 under setting [2].

Take PKKIMPEAHSHYLYGHMLSAFRD [PPFIA4]: the protein stability index amounted to 2.35 ± 0.23 (treatment: DMSO, c terminus: native) and 2.77 ± 0.35 (treatment: MLN4924 1 uM, 8 h, c terminus: native).

ADIKQYIGPPSAAAIFKIYLSCLE [TRIP13]: the protein stability index by setting is: under setting [1], 2.19 ± 0.4; under setting [2], 2.27 ± 0.22.

Regarding ITGAYDTIKHPGGAGAEESELQAY [MCOLN1], the protein stability index reads like this: under setting [1], 4.84 ± 0.19; under setting [2], 5.02 ± 0.19.

In the case of AAFCPQLDDSTVARELAITDSEHS [RETREG3], the protein stability index under setting [1] stood at 5.26 ± 0.16 and the protein stability index under setting [2] is 5.14 ± 0.16.

As for AIKCSPSLHVDDRERMELLEEAKK [RIPK4], the protein stability index reads like this: under setting [1], 5.12 ± 0.65; under setting [2], 5.28 ± 0.33.

On to MNNAVRNLQELLELDSSSSLCVLV [CEP70], for which the protein stability index is, setting by setting: under setting [1], 2.36 ± 0.29; under setting [2], 2.32 ± 0.19.

As for LYVVIPTRRSTAEAFQIVLSHLLG [SPNS1], the protein stability index runs as follows: under setting [1], 2.72 ± 0.4; under setting [2], 2.71 ± 0.33.

GPPGRSIGGAAPSLGALDLLGPAT [SERTAD1]: the protein stability index came to 3.79 ± 0.14 under setting [1] and 3.81 ± 0.11 under setting [2].

Turning to YLQKIEEFAEMVEREEEDDALDSE [KCNG1], the protein stability index reads like this: under setting [1], 5 ± 0.51; under setting [2], 5.15 ± 0.17.

Consider MKKGGIFSAEFLKVFIPSLFLSHV [BNIP3L], for which the protein stability index by setting is: under setting [1], 3 ± 1.1; under setting [2], 2.51 ± 0.56.

Take IVNSTEESDDAFDTVTIPVPSEEP [IQUB]: the protein stability index runs as follows: under setting [1], 5.5 ± 0.25; under setting [2], 5.55 ± 0.21.

With MGSASPGLSSVSPSHLLLPPDTVS [SPDEF], the protein stability index came to 4.28 ± 0.27 under setting [1] and 4.2 ± 0.23 under setting [2].

In the case of EVSHPFLIRLFWTWHDERFLYMLM [PRKX], the protein stability index under setting [1] is 2.24 ± 0.55 and the protein stability index under setting [2] is 2.14 ± 0.19.

In the case of ELMKCQIIYPRQQLLTLRELEMIG [TRIP13], the protein stability index stood at 2.33 ± 0.47 under setting [1] and 2.02 ± 0.53 under setting [2].

With QRELEIPEQQVDMHDMLLEELAPV [ZNF449], the protein stability index under setting [1] worked out at 5.22 ± 0.26 and the protein stability index under setting [2] was 5.12 ± 0.21.

As to FRPKDQTSVGMSFVAGGISGTVAA [SLC25A39], the protein stability index reads like this: under setting [1], 3 ± 0.11; under setting [2], 2.96 ± 0.29.

With TMLKAMFSGRMEVLTDSEGWILID [KCTD10], the protein stability index is 2.51 ± 0.57 under setting [1] and 2.75 ± 0.46 under setting [2].

Consider IYTHFTCATDTKNVQFVFDAVTDV [GNAI1], for which the protein stability index under setting [1] is 2.55 ± 0.46 and the protein stability index under setting [2] was 3.28 ± 1.5.

Turning to RFGVRPKVTGYLISYSSMLGAVAG [MFSD9], the protein stability index by setting is: under setting [1], 2.58 ± 0.54; under setting [2], 2.29 ± 0.31.

Regarding ACIAYIRLTQYMDGSGMPKTMQSE [CAMK2D], the protein stability index reads like this: under setting [1], 2.88 ± 0.5; under setting [2], 2.55 ± 0.59.

Regarding KQYKAVVYSNTIQSIIAIIRAMGR [GNAI1], the protein stability index under setting [1] turned out to be 1.95 ± 0.32 and the protein stability index under setting [2] is 2.21 ± 0.052.

Regarding GWAKHIPGFSTLSLADQMSLLQSA [ESRRG], the protein stability index runs as follows: under setting [1], 2.31 ± 0.22; under setting [2], 2.5 ± 0.16.

For the sequence TVPGQALACGSNRFNKLGLDHLSL [NEK8], the protein stability index under setting [1] is 2.44 ± 0.34 and the protein stability index under setting [2] turned out to be 2.45 ± 0.12.

Regarding SPSSDRVSAIIWEGNECKKMDMSV [PHTF1], the protein stability index is, setting by setting: under setting [1], 3.6 ± 0.26; under setting [2], 3.73 ± 0.43.

KDVLRYGEEQLKTHKKCKEEVVST [FCHO1] came in with a protein stability index under setting [1] of 4.85 ± 0.13 and a protein stability index under setting [2] of 4.78 ± 0.19.
